The text below walks through data of publication PMC4840434, “The interactome of Streptococcus pneumoniae and its bacteriophages show highly specific patterns of interactions among bacteria and their phages” (Scientific Reports, 2016).

Test in all cases: pull-down; LuMPIS: N-terminally MBP-tagged bait pulled down on amylose beads, N-terminally eGFP-luciferase-tagged prey detected by luciferase activity; both expressed in HEK cells, raw protein extracts; quadruplicates; LIR against MBP without ORF
The target of experiment [1] is Dp-1 orf9, No similarity (LuMPIS construct) (phage Dp-1 of S. pneumoniae).
Experiment [2] deals with Cp-1 orfc, Hypothetical protein (LuMPIS construct) (phage Cp-1 of S. pneumoniae).
Experiment [3] addresses Cp-1 orf17, Tail protein N (LuMPIS construct) (phage Cp-1 of S. pneumoniae).
Experiment [4] deals with Dp-1 orf44, Rho-like domain lipoprotein (LuMPIS construct) (phage Dp-1 of S. pneumoniae).
Experiment [5] concerns the target Dp-1 orf34, Hypothetical protein (LuMPIS construct) (phage Dp-1 of S. pneumoniae).
The target in experiment [6] is Dp-1 orf31, Hypothetical protein (LuMPIS construct) (phage Dp-1 of S. pneumoniae).
Experiment [7] addresses Dp-1 orf48, Hypothetical protein (LuMPIS construct) (phage Dp-1 of S. pneumoniae).
Experiment [8] concerns the target Dp-1 orf32, Hypothetical protein (LuMPIS construct) (phage Dp-1 of S. pneumoniae).
Experiment [9] addresses Dp-1 orf4, Queuosine biosynth. protein QueE (LuMPIS construct) (phage Dp-1 of S. pneumoniae).
The target in experiment [10] is Dp-1 orf58, Holin (LuMPIS construct) (phage Dp-1 of S. pneumoniae).
Experiment [11] has as its target Dp-1 orf14, dUTPase (LuMPIS construct) (phage Dp-1 of S. pneumoniae).
Experiment [12] deals with Cp-1 orfb, Hypothetical protein (LuMPIS construct) (phage Cp-1 of S. pneumoniae).
Experiment [13] addresses Cp-1 orf10, Connector protein (LuMPIS construct) (phage Cp-1 of S. pneumoniae).
Experiment [14] addresses Dp-1 orf18, DNA polymerase III, delta’ subunit HolB (LuMPIS construct) (phage Dp-1 of S. pneumoniae).
The target of experiment [15] is Cp-1 orf6, Hypothetical protein (LuMPIS construct) (phage Cp-1 of S. pneumoniae).

As to “SP_1395, putative phosphate transport system regulatory protein PhoU (LuMPIS construct) (from UniProt A0A0H2UQU1 1-217) (natural protein)”, in experiment [1], the LIR (luminescence intensity ratio against MBP alone) came out at 23.

Consider “SP_0979, oligoendopeptidase F (LuMPIS construct) (natural protein)”, for which the LIR (luminescence intensity ratio against MBP alone) in experiment [2] amounted to 3; in experiment [3], 14.

On to “SP_2157, alcohol dehydrogenase, iron-containing (LuMPIS construct) (from UniProt A0A0H2USH2 1-383) (natural protein)”, for which the LIR (luminescence intensity ratio against MBP alone) in experiment [4] turned out to be 13; in [5], 35.

Take “SP_2168, putative fucose operon repressor (LuMPIS construct) (from UniProt A0A0H2USI3 1-257) (natural protein)”: the LIR (luminescence intensity ratio against MBP alone) in experiment [1] was determined as 15; in experiment [6], 5; in experiment [7] it was 3.

For “SP_1575, conserved hypothetical protein (LuMPIS construct) (from UniProt A0A0H2UQU9 1-225) (natural protein)”, the LIR (luminescence intensity ratio against MBP alone) in experiment [4] was 14.

Take “SP_1669, MutT/nudix family protein (LuMPIS construct) (from UniProt A0A0H2URA0 1-203) (natural protein)”: the LIR (luminescence intensity ratio against MBP alone) in experiment [8] was 10.

With “SP_2036, PTS system, IIA component (LuMPIS construct) (from UniProt A0A0H2URW0 1-161) (natural protein)”, the LIR (luminescence intensity ratio against MBP alone) in experiment [9] was determined as 454.

For “SP_1725, sucrose operon repressor (LuMPIS construct) (natural protein)”, the LIR (luminescence intensity ratio against MBP alone) in [4] was determined as 3.

In the case of “SP_1504, TPR domain protein (LuMPIS construct) (from UniProt A0A0H2UQR2 1-403) (natural protein)”, the LIR (luminescence intensity ratio against MBP alone) in experiment [1] amounted to 19.

For the molecule “SP_1915, hypothetical protein (LuMPIS construct) (from UniProt A0A0H2URK9 1-149) (natural protein)”, the LIR (luminescence intensity ratio against MBP alone) in experiment [8] was 5.

Turning to “SP_1153, hypothetical protein (LuMPIS construct) (from UniProt A0A0H2UQ84 1-392) (natural protein)”, in experiment [6], the LIR (luminescence intensity ratio against MBP alone) is 6.

Consider “SP_1751, putative transporter, CorA family (LuMPIS construct) (from UniProt A0A0H2UR86 1-302) (natural protein)”, for which the LIR (luminescence intensity ratio against MBP alone) in [10] is 5.

Turning to “SP_2125, conserved hypothetical protein (LuMPIS construct) (from UniProt A0A0H2URY4 1-113) (natural protein)”, in experiment [11], the LIR (luminescence intensity ratio against MBP alone) worked out at 45.

On to “SP_1746, conserved hypothetical protein (LuMPIS construct) (from UniProt A0A0H2URF8 1-197) (natural protein)”, for which, in experiment [7], the LIR (luminescence intensity ratio against MBP alone) turned out to be 3.

With “SP_1536, conserved hypothetical protein (LuMPIS construct) (from UniProt A0A0H2UQS7 1-249) (natural protein)”, the LIR (luminescence intensity ratio against MBP alone) in [4] worked out at 10.

As to “SP_1213, conserved domain protein (LuMPIS construct) (from UniProt A0A0H2UQB9 1-424) (natural protein)”, the LIR (luminescence intensity ratio against MBP alone) in experiment [12] came out at 240.

For “SP_1731, conserved hypothetical protein (LuMPIS construct) (from UniProt A0A0H2UR87 1-252) (natural protein)”, the LIR (luminescence intensity ratio against MBP alone) in [10] turned out to be 3.

Consider “SP_0446, acetolactate synthase, small subunit (LuMPIS construct) (natural protein)”, for which the LIR (luminescence intensity ratio against MBP alone) in experiment [4] came out at 6; in experiment [5], 12.

B1: SP_1354, ribosomal protein L7/L12 (LuMPIS construct) (natural protein)
chain: MALNIENIIAEIKEASILELNDLVKAIEEEFGVTAAAPVAVAAADAADAGAAKDSFDVELTSAGDKKVGVIKVVREITGLGLKEAKELVDGAPALVKEGVATAEAEEIKAKLEEAGASVTLK
Turning to B1, the LIR (luminescence intensity ratio against MBP alone) in [13] worked out at 12.

B2: SP_0194, conserved hypothetical protein (LuMPIS construct) (natural protein)
chain: MSHDHNHDHEERELITLVDEQGNETLFEILLTIDGKEEFGKNYVLLVPVNAEEDEDGQVEIQAYSFIENEDGTEGELQPIPEDSEDEWNMIEEVFNSFMEE
B2: the LIR (luminescence intensity ratio against MBP alone) in [8] turned out to be 5.

B3: SP_1540, single-strand binding protein Ssb (LuMPIS construct) (natural protein)
chain: MINNVVLVGRMTRDAELRYTPSNVAVATFTLAVNRTFKSQNGEREADFINVVMWRQQAENLANWAKKGSLIGVTGRIQTRSYDNQQGQRVYVTEVVAENFQMLESRSVREGHTGGAYSAPTANYSAPTNSVPDFSRNENPFGATNPLDISDDDLPF
Take B3: the LIR (luminescence intensity ratio against MBP alone) in experiment [8] is 3.

B4: SP_1584, GTP-sensing transcriptional pleiotropic repressor CodY (LuMPIS construct) (natural protein)
chain: MAHLLEKTRKITSILKRSEEQLQDELPYNAITRQLADIIHCNACIINSKGRLLGYFMRYKTNTDRVEQFFQTKIFPDDYVQGANMIYETEANLPVEHDMSIFPIESRDDFPDGLTTIAPIHVSGIRLGSLIIWRNDKKFEDEDLVLVEIASTVVGIQLLNFQREEDEKNIRRRTAVTMAVNTLSYSELRAVSAILGELNGNEGKLTASVIADRIGITRSVIVNALRKLESAGIIESRSLGMKGTYLKVLISDIFEEVKKRDY
For B4, the LIR (luminescence intensity ratio against MBP alone) in experiment [14] was 6.

B5: SP_1713, transcriptional regulator, NrdR family (LuMPIS construct) (natural protein)
chain: MRCPKCGATKSSVIDSRQAEEGNTIRRRRECDECQHRFTTYERVEERTLVVVKKDGTREQFSRDKIFNGIIRSAQKRPVSSDEINMVVNRIEQKLRGRNENEIQSEDIGSLVMEELAELDEITYVRFASVYRSFKDVSELESLLQQITQSSKKKKER
In the case of B5, the LIR (luminescence intensity ratio against MBP alone) in [15] was 6.

B6: SP_1881, glutamate racemase (LuMPIS construct) (natural protein)
chain: MDNRPIGFLDSGVGGLTVVRELMRQLPHEEIVYIGDSARAPYGPRPAEQIREYTWQLVNFLLTKDVKMIVIACNTATAVVWEEIKAQLDIPVLGVILPGASAAIKSSQGGKIGVIGTPMTVQSDIYRQKIHDLDPDLQVESLACPKFAPLVESGALSTSVTKKVVYETLRPLVGKVDSLILGCTHYPLLRPIIQNVMGPKVQLIDSGAECVRDISVLLNYFEINRGRDAGPLHHRFYTTASSQSFAQIGEEWLEKEIHVEHVEL
Regarding B6, the LIR (luminescence intensity ratio against MBP alone) in experiment [13] was 6.
